{"source": "patent US20190062395A1", "about": "(MEDICENNA THERAPEUTICS, published 2019)", "target": "T1, interleukin 2 receptor beta (IL-2Rβ) (UniProt P14784 27-240, limits assumed)", "T1 construct": "also called CD122", "T1 sequence (looked up)": "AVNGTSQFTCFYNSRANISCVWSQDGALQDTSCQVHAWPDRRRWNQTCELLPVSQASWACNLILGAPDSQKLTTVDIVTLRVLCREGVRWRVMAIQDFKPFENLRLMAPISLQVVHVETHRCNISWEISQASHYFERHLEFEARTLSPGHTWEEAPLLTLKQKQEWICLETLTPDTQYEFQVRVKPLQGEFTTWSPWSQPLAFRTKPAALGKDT", "test": "method not stated; Kd column of the H9 substitution matrix; target not given", "data": [{"binder": "H9 (IL-2 mutein having the amino acid substitutions L80F, R81D, L85V, I86V, and I92F, numbered in accordance with wild-type human IL-2 of SEQ ID NO:2) (ligand, also called IL-2 superkine) APTSSSTKKTQLQLEHLLLDLQMILNGINNYKNPKLTRMLTFKFYMPKKATELKHLQCLEEELKPLEEVLNLAQSKNFHFDPRDVVSNINVFVLELKGSETTFMCEYADETATIVEFLNRWITFCQSIISTLT", "values": [{"measurement": "Kd", "result": 1.3, "unit": "nM"}]}]}
